Assays:
[1] = substrate: O=P(O)(O)O[C@H]1O[C@H](CO)[C@@H](O)[C@H](O)[C@@H]1O; assay: Michaelis-Menten kinetics of purified enzyme; assay type: biochemical, Homo sapiens; settings: Mg2+; Man-1,6-P2 activator
[2] = substrate: O=P(O)(O)O[C@H]1O[C@H](CO)[C@@H](O)[C@H](O)[C@H]1O; assay: Michaelis-Menten kinetics of purified enzyme; assay type: biochemical, Homo sapiens; settings: Mg2+; Glc-1,6-P2 activator

B1: Phosphomannomutase 2 (wt-PMM2) (Homo sapiens) (protein)
chain: MAAPGPALCLFDVDGTLTAPRQKITKEMDDFLQKLRQKIKIGVVGGSDFEKVQEQLGNDVVEKYDYVFPENGLVAYKDGKLLCRQNIQSHLGEALIQDLINYCLSYIAKIKLPKKRGTFIEFRNGMLNVSPIGRSCSQEERIEFYELDKKENIRQKFVADLRKEFAGKGLTFSIGGQISFDVFPDGWDKRYCLRHVENDGYKTIYFFGDKTMPGGNDHEIFTDPRTMGYSVTAPEDTRRICELLFS
Km [1]: 16.0 ± 1.5 µM | Km [2]: 8.2 ± 1.4 µM

B2: Phosphomannomutase 2 (F119L-PMM2) (Homo sapiens; F119L) (protein)
chain: MAAPGPALCLFDVDGTLTAPRQKITKEMDDFLQKLRQKIKIGVVGGSDFEKVQEQLGNDVVEKYDYVFPENGLVAYKDGKLLCRQNIQSHLGEALIQDLINYCLSYIAKIKLPKKRGTLIEFRNGMLNVSPIGRSCSQEERIEFYELDKKENIRQKFVADLRKEFAGKGLTFSIGGQISFDVFPDGWDKRYCLRHVENDGYKTIYFFGDKTMPGGNDHEIFTDPRTMGYSVTAPEDTRRICELLFS
Km [1]: 11.8 ± 1.0 µM | Km [2]: 15.5 ± 1.6 µM

From PMC3893156
